According to publication PMC7156110, “The MAPK substrate MASS proteins regulate stomatal development in Arabidopsis” (PLoS Genetics, 2020):

Biological target: T1, MBP-YDA (recombinant YODA) (Arabidopsis thaliana, UniProt Q9CAD5 1-883)
T1 construct: MAPKK kinase YODA (YDA, AT1G63700), Arabidopsis thaliana; also called MBP-tagged YDA; source: E. coli BL21 (DE3), purified (Amylose Resin)
T1 sequence (looked up): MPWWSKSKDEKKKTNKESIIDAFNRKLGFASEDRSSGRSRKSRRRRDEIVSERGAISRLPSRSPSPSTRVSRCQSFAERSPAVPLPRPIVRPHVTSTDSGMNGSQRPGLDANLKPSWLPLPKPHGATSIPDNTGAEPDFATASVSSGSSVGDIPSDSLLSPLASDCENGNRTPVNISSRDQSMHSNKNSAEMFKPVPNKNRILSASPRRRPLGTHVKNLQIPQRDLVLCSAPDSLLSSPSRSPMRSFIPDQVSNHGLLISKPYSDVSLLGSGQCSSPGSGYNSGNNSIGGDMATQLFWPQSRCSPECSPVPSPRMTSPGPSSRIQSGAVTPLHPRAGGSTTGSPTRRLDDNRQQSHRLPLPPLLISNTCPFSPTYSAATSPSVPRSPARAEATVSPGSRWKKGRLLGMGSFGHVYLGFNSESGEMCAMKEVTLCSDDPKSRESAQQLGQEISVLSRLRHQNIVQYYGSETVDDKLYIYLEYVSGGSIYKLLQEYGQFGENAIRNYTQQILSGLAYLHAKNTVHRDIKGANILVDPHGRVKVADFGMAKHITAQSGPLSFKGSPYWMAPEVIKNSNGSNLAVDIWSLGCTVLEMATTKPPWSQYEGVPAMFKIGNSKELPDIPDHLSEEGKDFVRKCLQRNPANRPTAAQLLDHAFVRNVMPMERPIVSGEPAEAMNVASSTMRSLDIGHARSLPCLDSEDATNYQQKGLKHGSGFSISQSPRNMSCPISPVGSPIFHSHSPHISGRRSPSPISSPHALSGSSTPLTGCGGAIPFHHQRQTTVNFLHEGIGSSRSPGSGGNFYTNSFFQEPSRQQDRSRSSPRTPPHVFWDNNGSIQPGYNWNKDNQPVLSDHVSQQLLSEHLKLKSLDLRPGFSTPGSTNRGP
Assay: pull-down; MBP-YDA held on Amylose Resin, incubated with His-MASS2 at 4°C for 2 h; washing buffer 50 mM Tris-HCl pH 7.5, 10 mM MgCl2, 150 mM NaCl, 1 mM DTT; blots with anti-His and anti-MBP
Details: both partners purified

binding result: binds
B1: His-MASS2.3 (MASS2 splicing variant 3, recombinant) (natural protein, Arabidopsis thaliana, UniProt Q9XI29 1-148, looked up)
chain: MEGLQRSTISFRRQGSSGIVFDDRLIAELNKSGNNEQKDESQRDEQPKPMSESSEQVKPIDEKDKLRPIKTGGGAPGGIERSRSNGGGAQRHHRTTGRVSPAVDPPSPRISSCGCCSAFGKNPPGKKVNPRKRPPKRRSRRRIVTKKR
notes: source: E. coli BL21 (DE3), purified (Ni-NTA agarose)
